# Results published in publication PMC8038143, “Conformation-Specific Inhibitory Anti-MMP-7 Monoclonal Antibody Sensitizes Pancreatic Ductal Adenocarcinoma Cells to Chemotherapeutic Cell Kill” (Cancers, 2021).
# B1: GSM-192 anti-MMP-7 monoclonal antibody (antibody, V domains shown)
# VH: EVQLQQSGPELVKPGASVKIPCKASGYTFTDYNMDWMKQSHGKSLEWIGHINPNNGGTFYNQKFKDKATFIVDKSSNTAYMELRSLTSEDTAVYFCARGGGLRRGPFAYWGQGTLVTVS
# VL: DIVTQSPASLAVSLGQRATISCRASESFDSYGNTFVHWYQQKPGQPPKLLIYLVSNLESGVPAGFRGRGSRTDFTLTIDPVEADDAATYYCQQNNEDPYTFGGGTKLEIK
# notes: Whole mouse monoclonal antibody; source: mouse hybridoma (BALB/c B cells fused with NSO myeloma cells), supernatant, purified (protein A column)
# Key:
# [1] = target: T1, recombinant catalytic human MMP-7 (active enzyme) (Homo sapiens, UniProt P09237); assay: cell-based or functional assay
# T1 sequence (P09237 95-258): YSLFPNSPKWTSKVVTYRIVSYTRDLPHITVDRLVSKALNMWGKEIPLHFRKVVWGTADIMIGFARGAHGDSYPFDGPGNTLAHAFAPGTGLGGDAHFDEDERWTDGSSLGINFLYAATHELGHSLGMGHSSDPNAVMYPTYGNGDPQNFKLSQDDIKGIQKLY
# [2] = target: T1, recombinant catalytic human MMP-7 …; assay: ELISA; 96-well plate coated with MMPs at 5 mg/mL; GSM-192 incubated at 25 °C for 1 h; detected with goat anti-Fab/anti-mouse antibody and peroxidase-conjugated anti-goat antibody; four-parametric sigmoidal fit; conditions: both partners purified
binder,measurement,setting,value
B1,"death of AsPC-1 PDAC cells treated with GSM-192, IC50",[1],2300 nM
same,"death of CFPAC-1 PDAC cells treated with GSM-192, IC50",[1],4300 nM
same,EC50,[2],43 ± 1 nM
